Results: the DeepSol protein solubility set

Assay: soluble on expression in E. coli; label from the status in PepcDB or PDB records

Row | Sequence | soluble on expression in E. coli
1 | MAHHHHHHMQKIQNAVRRRSRFFKWDVKWYSSKVKVEKKAGERHNDRHDSHDSHDSHKDIPQDSRPDTRVGQERKYNLWRWGCSGEGIFSSVKVGEKNKMPEKVPNFENAKIEKLSAGCDHAAFIVDGRIFTYGLNDKGQLGRSIEEENDQNKSYTLTPREVKTEGNVKFKDVCCGYKHTVAVDVNNNLYSWGWGGNFFKGANGLGHGNKQNLSTPKKVESFKSDDSEFVNICCGDQHSLVLTKNGKVYGCGRGEFGRLGKGNHGDQLFFEEIDFFISNNITVKGISCGHSFSAALSTDGEVYVWGRNDYGQLGIENSIGDLYSHEVYPNKVKYFDMENIKIKFIACGDNHMIACSENNVIFFWGSRAWLEPKAITLSPLYQNSVIKKNIDKIEAGGNTYYYSMLLSDNKLYSWGKYNSSCLALGDKKNHNEPTLVDSKLFNDEIVCDISCGRGRVLAKTLAAD | not soluble
2 | MADEVIEYKFICPNITIYRESLQHLYTSFAKGLKCVWKTRNTSGQTFFSWEFDLNELKNQGIDGLMGRISVNSDSIDLLNVQIDLKNSTEIIERVVHLYHNNYQYGYNYIPSATFEYSFVPYYAQAEGSLYDQMFLPSHENDAILVIGKKKLHVCKAFLSYHSSFFRAIFSSTFKEGQMSEIPIKDVTYKDFALMLSTIYPDAVFPNDRTAEKLLEMGDRFIIQSVINHVEYHLLHNTKIGNEKLMWMADRYGMSKLLVKSIRQMDSIEKAKALKSSPDYAKLSKEAKEKILDRLMALI | not soluble
3 | MSLKLVFYGAGNMAHAIFTGIVNSKVIDSNDIYLTNRSNEVALKEYAEKLGVNYSYDDEALLKAADYVFLGTKPYDFESLAERIKPFITDKNKFISIMAGLPISYIREKLEADNPIARIMPNTNAHVGHSVTGISFSSNFGPNSKDEVDELINAFGSAIEVPEDNLHQVTAITGSGPAFLYHVFEQYVTAGTRLGLEKAQVEESIRNLIIGTSKMIERSELSMEQLRKNITSKGGTTQAGLNALSQHDLESVFEDCLRAAVDRSVELSSQDEGHHHHHH | soluble
4 | GMSEIDANYRALAQQVADKVAGRVIALDRLPESLLTAYRSLCDELLADRDGRFTRAWDQLPDSASSLFERCVFHGFYLANAWIQLSIVARDISELQDTDEAIAEQEYSGLYVRVAEAALKESVKKLKKARTDRSMYNSMREVMGI | soluble
5 | MSITDVLSADDIAAALQECRDPDTFEPQKFFQTSGLSKMSANQVKDVFRFIDNDQSGYLDEEELKFFLQKFESGARELTESETKSLMAAADNDGDGKIGAEEFQEMVHS | soluble
6 | MGSDKIHHHHHHMTHQAATVHALNPATPEGLEVRLARTRAEVAAAQRIRYRVFYEEMGAKPTVAMQTLEQDFDDYDKHCDHLVVLADGDVVGTYRLIRRSAAQAVGRFYTAGEFDISPFLAVEGEILELGRSCVDARWRHRGTLQALWQGLAGYMVENDIRLLFGCGSLPGTDPEILAPQLAYLRDNHMAPPALRGRALDSAEKVDFAGIDVAWDARRVLASLPPLLKGYLRLGGVIGDGAVIDRPFNTTDVLVVVNAADIAGRYVKRFSA | not soluble
7 | MGSDKIHHHHHHMKQTILDVDLLAFEQGTRFQQAAVVDGLMRSLGTGFVVTTSDLPSALLDEAYGMLNRFFALEATTKRQFNVPEAFGQTGYTDTLVETAAGEKLPDWKEMLNWAFPLPDNHPLRQRFPTLYPEQLLPEVAVPGITRVLQTFHQTIAELQCRVLRIIATGLGCHNDFFTDLVQDAPTLTRAIRYPPMSEAPAAGHMWAAAHGDINLITALPRATAPGLQVYIDGSWVDAIAPEGQVIVNSGLMLERISNGLIPTGWHRVLAPSQANLERLSVVQFCHPKPSTLLTPLSNCVNESHPQRFAGVMAADALEEVLYKIKLMA | not soluble
8 | GSEAWMNFYLEEFNLSIPDSGPYGITSSEDGKVWFTQHKANKISSLDQSGRIKEFEVPTPDAKVMCLIVSSLGDIWFTENGANKIGKLSKKGGFTEYPLPQPDSGPYGITEGLNGDIWFTQLNGDRIGKLTADGTIYEYDLPNKGSYPAFITLGSDNALWFTENQNNSIGRITNTGKLEEYPLPTNAAAPVGITSGNDGALWFVEIMGNKIGRITTTGEISEYDIPTPNARPHAITAGKNSEIWFTEWGANQIGRITNDNTIQEYQLQTENAEPHGITFGKDGSVWFALKCKIGKLNLNE | soluble
9 | MDFGKTNSKLFVFGQDGGILDERRTQPKWTHQDGFSVLDEAALHDWALGAVTEAVENHGVEGVMVSGHGCTFALVDDAALTHPILDYEQEPPAEIAARIDHRIPDFAETFSPRLPLGFNYGRHMLWVQEVDPDAFAAAKSILGYPQYWSWRLGGRPVSEVSYLGCHSHLWAPRSQDFSSLVDAEGWRGQMPAFARAGAVIGERRLGSSSRPIAIHNGVHDSNAALHAYRRQELGLEHHHHHH | soluble
10 | PGRPTMMISTTAMNTALLQWHPPKELPGELLGYRLQYCRADEARPNTIDFGKDDQHFTVTGLHKGTTYIFRLAAKNRAGLGEEFEKEIRTPEDL | soluble
11 | MGSDKIHHHHHHMSASMPAYMSDPTDEQLSALNMAMDHKSFKVVAYAGAGKTTTLKLIGERLRGRGLYLAFNKAIANDARAKFPSHVECRTFHSLAYRHVARDITAKLSLPRFSPKRLGDDLGLQPVQVRRQMDGVNKYITLTPARLSRFVSDAISNFCSTHASYPAPRHILFPSWLDGSDAEQLREMLYPAVEQRWLQSIDARHPAGIGHDIYLKLWALSKPSIPADFILFDEAQDADPLMMGILTQQPRQVIYVGDAHQQIYEWRGAVNAMKRLPLPQTLLTQSFRFGEPIAEIANTLLKALQEDVPLKGNPNKQSSTDKGMVHSKKDAILCRTNAAAMSQLLTGLKLGHKVALQADTDRMLKFCQAAENLKNGKSAYGVPELAYFYNWGDVQEYSETNEGSDLKTLVKLVDDHGTNVLSQAVNSLSSIENADYVISTAHKAKGLEWGKVQLDDDFYYDVTTNAVKISPEELRLLYVACTRAQSNLDIHNIKDLISGLQTGKKVVFGNS | not soluble
12 | GPGSMTNQSDAIFPNILWAQRAELVLITIPLQDATNVVVEIKEGRVLHFEAEAGGEKYRCDVELFREVVSEESRHAAQPRQIDIQLRKKAPLTESGEEEFAQSRSWLRLTRDKSKNSHIQVDWSRWRDEDEDEDETGGLGMDYNDLMSRMMTQKGLGEDDCMDCGNHTDEDGVGPGADKANHSDSDDYDDLPPLEP | soluble
13 | MADKSTEVEKAIDPIIDLGNLLFIDREPIQGDASEGLEERARKNTQLLFNNIWQLEQKRVEEAIIVTLPPATYRLPREKRLPEKKEPTKWEKYAAEKGIEKRKKDKKVFDEATKEWKPTYGYRRGNDDTKDWLIEIPDNAEDPNKDFFAERREKKKERVAKNDMQRMKNLARQMKTTVKSGPSTEKMIGVGVDAKEKSKQQVRFAVDRAKLATASAGKFQEGLKGEKANVKTGKKRKFEANEAPVSGEKERALQILQRMKSKKAKIVEEKAAAVAGPLREKKEKSERKGAKDQTRQKSQIHRQQWFKNKVDGKKKGTGGAGKKGANKAKARKG | not soluble
14 | QTNSPASIPHLILELLKCEPDEPQVQAKIMAYLQQEQSNRNRQEKLSAFGLLCKMADQTLFSIVEWARSSIFFRELKVDDQMKLLQNCWSELLILDHIYRQVAHGKEGTIFLVTGEHVDYSTIISHTEVAFNNLLSLAQELVVRLRSLQFDQREFVCLKFLVLFSSDVKNLENLQLVEGVQEQVNAALLDYTVCNYPQQTEKFGQLLLRLPELRAISKQAEDYLYYKHVNGDVPYNNLLIEMLHAKRA | soluble
15 | MKALTARQQEVFDLIRDHISQTGMPPTRAEIAQRLGFRSPNAAEEHLKALARKGVIEIVSGASRGIRLLQEEEEGLPLVGRVAADEPLLAQQHIEGHYQVDPSLFKPNADFLLRVSGMSMKDIGIMDGDLLAVHKTQDVRNGQVVVARIDDEVTVKRLKKQGNKVELLPENSEFKPIVVDLRQQSFTIEGLAVGVIRNGDWL | soluble
16 | MSLEIIPVIDLMNGLAVSGKSGNRKEYVPIKSVLCDSSDPHDVIKKYNENGAKKVYIADLNSIMGTGNNFEIVKSLDIFKIVDFGVTDKKDLENVKKCVNMTILGTETLNDISILKEGNIILSLDFKDGKLLNYDLDDILSKVDKKTPLIILDISSVGTQKGINVELIKDILKKTDNPIYIGGGIKSEDDLKISKELGISGVLIGTTIHNGKLDLKKIIQKYGEGHHHHHH | soluble
17 | MLRIAKEALTFDDVLLVPAHSTVLPNTADLSTQLTKTIRLNIPMLSAAMDTVTEARLAIALAQEGGIGFIHKNMSIERQAEEVRRVKKHESGVVTDPQTVLPTTTLHEVKALTERNGFAGYPVVTEDNELVGIITGRDVRFVTDLNQPVSVYMTPKERLVTVREGEAREVVLAKMHEKRVEKALVVDDNFHLLGMITVKDFQKAERKPNSCKDEQGRLRVGAAVGAGAGNEERVDALVAAGVDVLLIDSSHGHSEGVLQRIRETRAKYPDLQIIGGNVATGAGARALAEAGCSAVKVGIGPGSICTTRIVTGVGVPQITAVSDAVEALEGTGIPVIADGGIRFSGDIAKAIAAGASAVMVGSMLAGTEESPGEIELYQGRSYKSYRGMGSLGAMSKGSSDRYFQSDNAADKLVPEGIEGRVAYKGRLKEIIHQQMGGLRSCMGLTGCATIDELRTKAEFVRISGAGIQESHVHDVTITKESPNYRLGS | not soluble
18 | MYQSIHVNKGQGGWGTGLDLTPSEPRTKVVSITGGGIHPVALKIAELSGAEAVDGFKNSIPEEEMMCVVIDCGGTARIGVYPMKRIPTVDILPSSPSGPLAKHITEDIFVSGVKPEDIMVTSSEADPGKPFDREKFKEDYAKIKEDQQEASDLKEGYLVKFSRGIGKAMGVFYQAGRDSVDMLIKN | not soluble
19 | MPSIDIDEDTSVETTTMTETPTLDLNAKVEIINFINTFDVKGNCYLYHEGEEKLVSTLLRPDDRKRISLMKELEEARTIRQLHKTRLFKDHPFLKKQKRIILLPYSSISKSHMQTSHYSEREINRTKIINTFWKSKLELHYDAAEASILVCSFLAQNIDRNTHGLGISQSKIAIVLGMSLRRVSDTLNRLEQLGYVRRYTEKAKRGKLSLGTFIQVTENFSSQFLPPKKIVGESEEKQKQGSEHQPQDPPEKHYFQFLQSLNDLRLELKNFIVNSEEPIPPVVLQQIFKVL | not soluble
20 | MSRSRKPDWLKMRPPSGERFTDIKQTLRDRNLNTVCEEANCPNLGECWSGRDGPGTATFMLMGDRCSRGCNFCDVETGGMDPLDPDEPQQVADAVAEIGLDYVVLTSVDRDDLPDQGASHFAETIRAIKERDPSILVECLIPDFQGEPDLVRKIIDADPDVIAHNIETVDRLQWPVRDRRAGYEQSLSVLRQVNRESDCYSKTSLMLGVGEYAHEVYQTLSDLRQAGVDVVTFGQYLQPSRSHLEVSEYVHPDAFDTWQQVAEAEFDFLYCASGPMVRSSYRAGELFVESVLREGRSADEARAEVRAND | not soluble
21 | MGSDKIHHHHHHMSGHKCSYPWDLQDRYAQDKSVVNKMQQKYWETKQAFIKATGKKEDEHVVASDADLDAKLELFHSIQRTCLDLSKAIVLYQKRICFLSQEENELGKFLRSQGFQDKTRAGKMMQATGKALCFSSQQRLALRNPLCRFHQEVETFRHRAISDTWLTVNRMEQCRTEYRGALLWMKDVSQELDPDLYKQMEKFRKVQTQVRLAKKNFDKLKMDVCQKVDLLGASRCNLLSHMLATYQTTLLHFWEKTSHTMAAIHESFKGYQPYEFTTLKVWKLEGPLENLEKSKVLFISQAKSIAESIIIPGLRMLKRELCPQQSLFLSFFLFFYCIRIQYNENLLQSKSAN | not soluble
22 | MASGDLVHYVITVMLHEDTLTEINELNNYLTRDGFLLTMTDDEGNIHELGTNTFGLISTQSEEEIRELVSGLTQSATGKDPEITITTWEEWNSNRK | not soluble
